Assay results: patent US20230025732A1 (INNATE PHARMA, published 2023)
Numbering of substitutions follows the chain as printed. Numbers in names are those of the source.

T1: human CD39 expressed at the cell surface (human, UniProt P49961 1-510)
T1 construct: On CHO transfectants, Hek-293T transfectants, Ramos and Mino tumor cells; also called huCD39; CHO-huCD39
T1 sequence: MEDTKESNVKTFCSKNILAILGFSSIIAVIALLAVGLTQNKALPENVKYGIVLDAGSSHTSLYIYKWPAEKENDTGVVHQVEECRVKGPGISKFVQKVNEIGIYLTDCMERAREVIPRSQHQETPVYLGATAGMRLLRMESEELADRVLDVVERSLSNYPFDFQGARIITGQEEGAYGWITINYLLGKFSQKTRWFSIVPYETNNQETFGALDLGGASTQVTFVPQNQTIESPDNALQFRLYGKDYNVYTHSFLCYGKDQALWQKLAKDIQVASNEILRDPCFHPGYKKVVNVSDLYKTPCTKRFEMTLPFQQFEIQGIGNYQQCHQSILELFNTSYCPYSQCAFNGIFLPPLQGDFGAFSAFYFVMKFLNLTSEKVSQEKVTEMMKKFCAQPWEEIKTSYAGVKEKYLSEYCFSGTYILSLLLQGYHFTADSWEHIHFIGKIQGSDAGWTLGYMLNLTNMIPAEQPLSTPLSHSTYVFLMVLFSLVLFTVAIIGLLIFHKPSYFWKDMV

B1: mAb2 H0L1 (antibody, human IgG1, V domains shown)
VH: QVQLVQSGAEVKKPGASVKVSCKASGYTFTDYNMHWVRQAPGQRLEWMGYIVPLNGGSTFNQKFKGRVTITRDTSASTAYMELSSLRSEDTAVYYCARGGTRFAYWGQGTLVTVSS
VL: DIVMTQSPDSLAVSLGERATINCRASESVDNFGVSFMYWFQQKPGQPPKLLIYGASNQGSGVPDRFSGSGSGTDFTLTISSLQAEDVAVYYCQQTKEVPYTFGGGTKVEIK
B2: mAb11 H2*L1 (antibody, human IgG1, V domains shown)
VH: B1 VH with N61S, V68A, R72V
VL: B1 VL
B3: mAb17 H3*L1 (antibody, human IgG1, V domains shown)
VH: B1 VH with M48I, N61S, K65Q, V68A, R72V
VL: B1 VL
B4: mAb8 H2L1 (antibody, human IgG1, V domains shown)
VH: B1 VH with V68A, R72V
VL: B1 VL
B5: mAb5 H1L1 (antibody, human IgG1, V domains shown)
VH: QVQLVQSGAEVKKPGASVKVSCKASGYTFTDYNMHWVRQAPGQRLEWMGYIVPLNGGSTFNQKFKGRVTITVDTSASTAYMELSSLRSEDTAVYYCARGGTRFAYWGQGTLVTVS
VL: B1 VL
B6: mAb20 H4L1 (antibody, human IgG1, kappa, V domains shown)
VH: B1 VH with M48I, V68A, R72V, S77R
VL: DIVMTQSPDSLAVSLGERATINCRASESVDNFGVSFMYWFQQKPGQPPKLLIYGASNQGSGVPDRFSGSGSGTDFTLTISSLQAEDVAVYYCQQTKEVPYTFGGGTKVEIKR
notes: full heavy chain carries L234A/L235E/G237A/A330S/P331S
B7: mAb14 H3L1 (antibody, human IgG1, V domains shown)
VH: B1 VH with M48I, V68A, R72V
VL: B1 VL
B8: mAb19 H4L0 (antibody, human IgG1, V domains shown)
VH: B1 VH with M48I, V68A, R72V, S77R
VL: B1 VL with F40Y
B9: mAb10 H2*L0 (antibody, human IgG1, V domains shown)
VH: B1 VH with N61S, V68A, R72V
VL: B1 VL with F40Y
B10: mAb16 H3*L0 (antibody, human IgG1, V domains shown)
VH: B1 VH with M48I, N61S, K65Q, V68A, R72V
VL: B1 VL with F40Y
B11: mAb13 H3L0 (antibody, human IgG1, V domains shown)
VH: B1 VH with M48I, V68A, R72V
VL: B1 VL with F40Y
B12: mAb7 H2L0 (antibody, human IgG1, V domains shown)
VH: B1 VH with V68A, R72V
VL: B1 VL with F40Y
B13: mAb4 H1L0 (antibody, human IgG1, V domains shown)
VH: B5 VH
VL: B1 VL with F40Y
B14: mAb22 H4*L0 (antibody, human IgG1, V domains shown)
VH: B1 VH with M48I, N61S, K65Q, V68A, R72V, S77R
VL: B1 VL with F40Y
B15: mAb1 H0L0 (antibody, human IgG1, V domains shown)
VH: B1 VH
VL: B1 VL with F40Y
B16: mAb12 H2*L1* (antibody, human IgG1, V domains shown)
VH: B1 VH with N61S, V68A, R72V
VL: B1 VL with R24K
B17: mAb6 H1L1* (antibody, human IgG1, V domains shown)
VH: B5 VH
VL: B1 VL with R24K
B18: mAb24 H4*L1* (antibody, human IgG1, V domains shown)
VH: B1 VH with M48I, N61S, K65Q, V68A, R72V, S77R
VL: B1 VL with R24K
B19: mAb15 H3L1* (antibody, human IgG1, V domains shown)
VH: B1 VH with M48I, V68A, R72V
VL: B1 VL with R24K
B20: mAb9 H2L1* (antibody, human IgG1, V domains shown)
VH: B1 VH with V68A, R72V
VL: B1 VL with R24K
B21: mAb21 H4L1* (antibody, human IgG1, kappa, V domains shown)
VH: B1 VH with M48I, V68A, R72V, S77R
VL: B6 VL with R24K
B22: mAb3 H0L1* (antibody, human IgG1, V domains shown)
VH: B1 VH
VL: B1 VL with R24K
B23: mAb18 H3*L1* (antibody, human IgG1, V domains shown)
VH: B1 VH with M48I, N61S, K65Q, V68A, R72V
VL: B1 VL with R24K

molecular target: T1, human CD39 expressed at the cell surface; assay: flow cytometry, CHO cells expressing human CD39
Protocol: Cells were incubated with various concentration of unlabeled anti-CD39 antibody from 30 μg/ml to 5×10⁻⁴ μg/ml, for 30 minutes at 4° C. After washes, cells were incubated with Goat anti-mouse H+L labeled secondary antibody for 30 min at 4° C.
Antibodies mAb1-21 were assessed for binding to CD39 by flow cytometry as described in Example 7, using CHO cells expressing human CD39 and CHO cells expressing cynomolgus (Macaca fascicularis) CD39.

binding result | Binder
binds | B1
binds | B2
binds | B3

molecular target: T1, human CD39 expressed at the cell surface; assay: flow cytometry titration on Ramos lymphoma cells (Mean of Fluorescence), panel L1

binding result | EC50 (read off the curve) [µg/mL] | Binder
binds |  | B4
binds |  | B5
 | ~0.8 | B6
binds |  | B7

molecular target: T1, human CD39 expressed at the cell surface; assay: flow cytometry titration on Ramos lymphoma cells (Mean of Fluorescence), panel L0

binding result | Binder
binds | B8
binds | B9
binds | B10
binds | B11
binds | B12
binds | B13
binds | B14
binds | B15

molecular target: T1, human CD39 expressed at the cell surface; assay: flow cytometry titration on Ramos lymphoma cells (Mean of Fluorescence), panel L1*

binding result | Binder
binds | B16
binds | B17
binds | B18
binds | B19
binds | B20
binds | B21
binds | B22
binds | B23
